Measured values published in PMC5892879, “Structures of the Mycobacterium tuberculosis GlpX protein (class II fructose-1,6-bisphosphatase): implications for the active oligomeric state, catalytic mechanism and citrate inhibition” (Acta Crystallographica. Section D, Structural Biology, 2018).

Key:
Test in all cases: crystal structure
[1] = target: Mycobacterium tuberculosis class II fructose-1,6-bisphosphatase (GlpX protein), T84A variant (Mycobacterium tuberculosis) (UniProt P9WN21)
[2] = target: Mycobacterium tuberculosis class II fructose-1,6-bisphosphatase (GlpX protein), T84S variant (Mycobacterium tuberculosis) (UniProt P9WN21)
[3] = target: Mycobacterium tuberculosis class II fructose-1,6-bisphosphatase (GlpX protein), wild type (Mycobacterium tuberculosis) (UniProt P9WN21)

“Mycobacterium tuberculosis class II fructose-1,6-bisphosphatase (GlpX protein), T84A variant (from UniProt P9WN21) (enzyme)” was tested, and the stoichiometry N [1] was 4.
“Mycobacterium tuberculosis class II fructose-1,6-bisphosphatase (GlpX protein), T84S variant (from UniProt P9WN21) (enzyme)” was tested, and the stoichiometry N [2] was 4.
In the case of “Mycobacterium tuberculosis class II fructose-1,6-bisphosphatase (GlpX protein), wild type (from UniProt P9WN21 35-362) (enzyme)”, the stoichiometry N [3] is reported as 4.
